# Laboratory results taken from patent US20250075190A1, “DE NOVO DESIGNED LUCIFERASE” (UNIVERSITY OF WASHINGTON, priority 2022, published 2025).
# Where a chain is given by its changes, count along the chain named. Numbers in names are those of the source.
# B1: native Renilla reniformis luciferase (RLuc) (Renilla reniformis) (protein)
# chain: MTSKVYDPEQRKRMITGPQWWARCKQMNVLDSFINYYDSEKHAENAVIFLHGNAASSYLWRHVVPHIEPVARCIIPDLIGMGKSGKSGNGSYRLLDHYKYLTAWFELLNLPKKIIFVGHDWGACLAFHYSYEHQDKIKAIVHAESVVDVIESWDEWPDIEEDIALIKSEEGEKMVLENNFFVETMLPSKIMRKLEPEEFAAYLEPFKEKGEVRRPTLSWPREIPLVKGGKPDVVQIVRNYNAYLRASDDLPKMFIESDPGFFSNAIVEGAKKFPNTEFVKVKGLHFSQEDAPDEMGKYIKSFVERVLKNEQ
# notes: host and tag of RLuc not clearly stated
# B2: LuxSit: de novo designed DTZ luciferase, 117 residues, SEQ ID NO:1 (protein)
# chain: MSEEQIRQFLRRFYEALDSGDADTAASLFHPGVTIHLWDGVTFTSREEFREWFERLFSTRKDAQREIKSLEVRGDTVEVHVQLHATHNGQKHTVDATHHWHFRGNRVTEMRVHINPTG
# modifications: VARIANT 1 optionally absent; VARIANT 118 optionally absent
# B3: A96M: LuxSit mutant A96M (protein)
# chain: B2 chain with A96M
# modifications: VARIANT 1 optionally absent; VARIANT 118 optionally absent
# B4: M110V: LuxSit mutant M110V (protein)
# chain: B2 chain with M110V
# modifications: VARIANT 1 optionally absent; VARIANT 118 optionally absent
# B5: LuxSit-f: LuxSit variant A96M/M110V, SEQ ID NO:3, strong initial flash emission (protein)
# chain: B2 chain with A96M, M110V
# modifications: VARIANT 1 optionally absent; VARIANT 118 optionally absent
# What was measured:
# [1] = substrate: Oc1ccc(Cc2nc3c(Cc4ccccc4)nc(-c4ccc(O)cc4)cn3c2O)cc1; test: Michaelis-Menten kinetics of native Renilla luciferase (RLuc) with CTZ; assay type: biochemical, Renilla reniformis; conditions: other: substrate CTZ; Table 3; pH 8.0
# Text: (§1) Synthetic genes and oligonucleotides were purchased from Integrated DNA Technologies or GenScript. The synthetic gene was inserted between NdeI and XhoI sites of a pET29b+ vector, containing an N-terminal hexahistidine tag followed by a TEV protease cleavage site and a C-terminal stop codon. Restriction endonucleases, Q5 PCR polymerase, and T4 ligase were purchased from NEB. Plasmid DNA, PCR products, or digested fragments were purified by Qiagen DNA purification kits. DNA sequences were analyzed by Genewiz. Coelenterazine (CTZ) was purchased from Gold Biotechnology. Diphenylterazine (DTZ), pyridyl diphenylterazine (8pyDTZ), and Furimazine (FRZ) were purchased from MedChemExpress. […] DNA and protein concentrations were determined by a NanoDrop™ small-volume 8 channel UV/vis spectrometer. […] All luminescence measurements were acquired by a Biotek Synergy Neo2T™ Multi-Mode Plate Reader. To convert relative arbitrary unit (RLU) to the number of photons, Neo2 plate reader was calibrated by determining the chemiluminescence of luminol with known quantum yield in the presence of horseradish peroxidase and hydrogen peroxide in K2CO3 aqueous solution as previously described^45. SDS PAGE and luminescence images were captured by a Bio-Rad ChemiDocT™ XRS+. Images were analyzed using the Fiji image analysis software.
# For Michaelis-Menten kinetics measurements, 25 μL of serial diluted DTZ substrate in Tris pH 8.0 buffer was added into the wells of a white 96-well half-area microplate containing 25 μL of purified luciferases (final enzyme concentration: 100 nM; substrate concentration: 0.78 to 50 μM). […] The luminescence signals were monitored until the reactions were completed (0.1 s integration and measurements were taken every 5 s for a total of 40 min). […] In vitro luminescence activity measurements of LuxSit-i expressing HEK293T or HeLa cells were done similarly as 15,000 intact cells or lysates were used in the assay instead of purified luciferases. […]
# [2] = Luciferase activities of re-designed sequences based on LuxSit-i (Table 1); assay type: biochemical; conditions: LuxSit-f and re-designed sequences based on LuxSit-i (Table 1)
# Text: In another embodiment, the proteins comprise an amino acid sequence at least 30%, 35%, 40%, 45%, 50%, 55%, 60%, 65%, 70%, 75%, 80%, 85%, 90%, 91%, 92%, 93%, 94%, 95%, 96%, 97%, 98%, 99%, or 100% identical to the amino acid selected from the group consisting of SEQ ID NO:1-181, as shown in Table 1. SEQ ID NO:5-181 in Table 1 are re-designed amino acid sequences based on LuxSit-i (SEQ ID NO:2), with their luciferase activities shown.
# [3] = Circular dichroism spectra and thermal denaturation; assay type: physicochemical; conditions: 220 nm, 25° C. to 95° C.
# Text: as §1
# Purified protein samples were prepared at 15 μM in pH 7.4 10 mM phosphate buffer. Spectra from 190 nm to 260 nm were recorded at 25° C., 50° C., 75° C., 95° C., and after cooling back to 25° C. Thermal denaturation was monitored at 220 nm from 25° C. to 95° C. […]
# [4] = for Relative emission intensity: integrated luminescence intensity over the first 20 min, normalized to LuxSit, 25 μM DTZ in Tris pH 8.0 buffer; for increase of activity over LuxSit: DTZ
# Method: Each colony was expressed individually in each well of 96-well plates (1 mL culture) and purified accordingly (see Methods). (a) Individual luminescence activity of each selected mutant was plotted and compared to the parent LuxSit. Luminescence activities were measured in the presence of 25 μM DTZ. Luminescence activity (RLU) was shown as the integrated signal over the first 15 min. Statistical analysis of the amino acid frequency versus the luciferase activity at residue (b) 60, (c) 96, and (d) 110.
# The cells were plated on 150 mm×15 mm LB agar plates supplemented with carbenicillin and L-arabinose, incubated at 37° C. overnight, and left at 4° C. for another 24 h. As described in the screening of luciferase libraries, colony-based screening by spraying DTZ solution was used to identify active colonies. […] The plates were shaken at 37 C overnight (˜16-18 h) on 96-well plate shakers at 1,100 rpm. Cells were pelleted by centrifugation at 4,000 g for 15 min in a tabletop centrifuge. Media was discarded and the cell pellets were resuspended in 0.2 mL BugBuster HT Protein Extraction buffer. The plates were transferred back to 96-well plate shakers and incubated at 1,100 rpm for an additional 30 min. Cellular debris was pelleted again by centrifugation at 4,000 g for 15 min, soluble lysates were transferred to a new semi-deep 96-well plate, and incubated with 10 μL of magnetic Ni-NTA beads for 30 min to allow binding. The magnetic extractor was used to first transfer the beads from the binding plates to wash plates with 200 μL IMAC wash buffer in each well, and then transfer the beads to elusion plates containing 30 μL IMAC elution buffer in each well. The concentrations of all proteins in each well were determined by the Bradford assay directly. The elution solution in each well was used to make a 25 μL protein solution at indicated concentration and mixed with 25 μL of 50 μM DTZ PBS solution. The luminescence signals were acquired over a course of 15 min while the actual point mutation was identified by sequencing.
# [5] = Michaelis-Menten kinetics measurements of purified luciferases; assay type: biochemical; conditions: DTZ; mean (95% CI), n = 3
# Method: For Michaelis-Menten kinetics measurements, 25 μL of serial diluted DTZ substrate in Tris pH 8.0 buffer was added into the wells of a white 96-well half-area microplate containing 25 μL of purified luciferases (final enzyme concentration: 100 nM; substrate concentration: 0.78 to 50 μM). Measurements were taken every 1 min (0.1 s integration and 10 s shaking between each interval) for a total of 20 min. Initial velocities were estimated as the average of the light intensities from the first three data points to fit the Michaelis-Menten equation. All relative arbitrary unit (RLU) per second values were converted to photon/s by the luminol-H2O2—HRP calibration method^45. Following the equation: Imax=LQY×kcat×[E], Imax is the maximal photon flux (photon s^−1), [E] is the total enzyme concentration, and V ax is the maximum photon flux per molecule (photon s^−1 molecule^−1) from the fitting of the Michaelis-Menten equation. To determine the luminescent quantum yields, 25 μL of 5 μM individual substrate in PBS was injected into 25 μL PBS containing 100 nM corresponding luciferase. DTZ was used for all LuxSit variants while CTZ was used as the substrate of native RLuc. The luminescence signals were monitored until the reactions were completed (0.1 s integration and measurements were taken every 5 s for a total of 40 min). […] To record emission spectra, 25 μL of 50 μM DTZ in PBS were injected into 25 μL of 200 nM pure luciferases and the emission spectra were collected with 0.1 s integration and 2 nm increments from 300 to 700 num. In vitro luminescence activity measurements of LuxSit-i expressing HEK293T or HeLa cells were done similarly as 15,000 intact cells or lysates were used in the assay instead of purified luciferases. To evaluate the substrate specificity, 25 μL of 50 μM substrate analogs in PBS were added to 25 μL of 200 nM indicated luciferases, and the signals were recorded over 20 min. Data were shown as the total luminescence signal over the first 10 min. We normalized the data by setting the highest emission substrate at 100%.
# [6] = Luminescent quantum yield of LuxSit variants; assay type: biochemical; conditions: consuming 125 pmol of DTZ in PBS with 50 nM recombinant luciferase; estimated relative to reported quantum yield of RLuc; mean ± s.d., n = 3
# Method: FIG. 10. Additional characterization of LuxSit variants. (a) Normalized emission kinetics of 15,000 intact HeLa cells expressing LuxSit-i, 100 nM purified LuxSit-i, or 100 nM purified LuxSit-f in the presence of 50 μM DTZ. The more extended emission kinetics in HeLa cells is likely due to the diffusion rate of DTZ across cell membranes. […] (c) Luminescent quantum yield was estimated from the integrated luminescence signal until completely converting 125 pmol substrates to photons in the presence of 50 nM corresponding luciferase (see Methods). All data points were plotted as the average of triplicate measurements.
# For Michaelis-Menten kinetics measurements, 25 μL of serial diluted DTZ substrate in Tris pH 8.0 buffer was added into the wells of a white 96-well half-area microplate containing 25 μL of purified luciferases (final enzyme concentration: 100 nM; substrate concentration: 0.78 to 50 μM). […] The luminescence signals were monitored until the reactions were completed (0.1 s integration and measurements were taken every 5 s for a total of 40 min). […] In vitro luminescence activity measurements of LuxSit-i expressing HEK293T or HeLa cells were done similarly as 15,000 intact cells or lysates were used in the assay instead of purified luciferases. […] Data were shown as the total luminescence signal over the first 10 min. […]
Molecule,Activity [2],thermal stability (CD melting) [3],Relative emission intensity [4],increase of activity over LuxSit [4],further results
B1,,,,,Km [1]: 1.5 µM; kcat [1]: 4.9 s⁻¹; kcat/Km [1]: 3.3e+06 M⁻¹ s⁻¹
B2,75.3,not fully unfolded at 95 °C,1,,
B3,,,16.4,16 fold,
B4,,,19.3,19 fold,Km [5]: 30.3 µM; Vmax [5]: 7.1(6.2-8.4) ×10^−2 photon s^−1 molecule^−1
B5,534.5,thermostable,60.9,,LQY (luminescent quantum yield) [6]: 10.9 ± 1.5%
